Results published in article PMC4405178 (Biochemistry, 2015).

Key:
[1] = biological target: Ste2p R58L, S95Y (Saccharomyces cerevisiae) (UniProt D6VTK4); assay: flow cytometry on cells
[2] = biological target: Ste2p R58Q, S95Y (Saccharomyces cerevisiae) (UniProt D6VTK4); assay: flow cytometry on cells
Chain of Ste2p R58Q, S95Y (Saccharomyces cerevisiae) (D6VTK4 1-303 R58Q/S95Y): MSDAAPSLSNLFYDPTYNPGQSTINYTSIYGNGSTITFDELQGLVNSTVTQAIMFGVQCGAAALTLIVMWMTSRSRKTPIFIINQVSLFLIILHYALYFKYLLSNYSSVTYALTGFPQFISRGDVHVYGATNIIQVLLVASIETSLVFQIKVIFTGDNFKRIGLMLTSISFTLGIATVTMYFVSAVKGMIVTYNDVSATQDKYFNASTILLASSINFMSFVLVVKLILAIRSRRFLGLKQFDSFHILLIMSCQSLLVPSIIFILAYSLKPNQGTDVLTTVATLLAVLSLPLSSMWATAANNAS

Chain of Ste2p R58L, S95Y (Saccharomyces cerevisiae) (D6VTK4 1-303 R58L/S95Y): as the sequence (D6VTK4 1-303 R58Q/S95Y) above, with Q58L counted along it

Question: Which ligand binding at 300 nM ligand, % of wild-type levels (% of wild-type levels) [1] does the source give for [K^7(NBD),Nle^12] α-factor (peptide) here?
Answer: 13.7

Question: What about the ligand binding at 300 nM ligand, % of wild-type levels (% of wild-type levels) [2] of the same substance?
Answer: 16.8
